Laboratory results from US20230250154A1.

Biological target: Protease Mixtures
Test: cell-based or functional assay

B1: Variant A2M, bait region SEQ ID NO 143, P01023 24-1474 (protein)
chain: SVSGKPQYMVLVPSLLHTETTEKGCVLLSYLNETVTVSASLESVRGNRSLFTDLEAENDVLHCVAFAVPKSSSNEEVMFLTVQVKGPTQEFKKRTTVMVKNEDSLVFVQTDKSIYKPGQTVKFRVVSMDENFHPLNELIPLVYIQDPKGNRIAQWQSFQLEGGLKQFSFPLSSEPFQGSYKVVVQKKSGGRTEHPFTVEEFVLPKFEVQVTVPKIITILEEEMNVSVCGLYTYGKPVPGHVTVSICRKYSDASDCHGEDSQAFCEKFSGQLNSHGCFYQQVKTKVFQLKRKEYEMKLHTEAQIQEEGTVVELTGRQSSEITRTITKLSFVKVDSHFRQGIPFFGQVRLVDGKGVPIPNKVIFIRGNEANYYSNATTDEHGLVQFSINTTNVMGTSLTVRVNYKDRSPCYGYQWVSEEHEEAHHTAYLVFSPSKSFVHLEPMSHELPCGHTQTVQAHYILNGGTLLGLKKLSFYYLIMAKGGIVRTGTHGLLVKQEDMKGHFSISIPVKSDIAPVARLLIYAVLPTGDVIGDSAKYDVENCLANKVDLSFSPSQSLPASHAHLRVTAAPQSVCALRAVDQSVLLMKPDAELSASSVYNLLPEKDLTGFPGPLNDQDDEDCINRHNVYINGITYTPVSSTNEKDMYSFLEDMGLKAFTNSKIRKPKMCPQLEQYEMHGPIPENFFGVSEDLVVQIEGEGEGEGEAIPMSIPTEPHTKLRKYFPETWIWDLVVVNSAGVAEVGVTVPDTITEWKAGAFCLSEDAGLGISSTASLRAFQPFFVELTMPYSVIRGEAFTLKATVLNYLPKCIRVSVQLEASPAFLAVPVEKEQAPHCICANGRQTVSWAVTPKSLGNVNFTVSAEALESQELCGTEVPSVPEHGRKDTVIKPLLVEPEGLEKETTFNSLLCPSGGEVSEELSLKLPPNVVEESARASVSVLGDILGSAMQNTQNLLQMPYGCGEQNMVLFAPNIYVLDYLNETQQLTPEIKSKAIGYLNTGYQRQLNYKHYDGSYSTFGERYGRNQGNTWLTAFVLKTFAQARAYIFIDEAHITQALIWLSQRQKDNGCFRSSGSLLNNAIKGGVEDEVTLSAYITIALLEIPLTVTHPVVRNALFCLESAWKTAQEGDHGSHVYTKALLAYAFALAGNQDKRKEVLKSLNEEAVKKDNSVHWERPQKPKAPVGHFYEPQAPSAEVEMTSYVLLAYLTAQPAPTSEDLTSATNIVKWITKQQNAQGGFSSTQDTVVALHALSKYGAATFTRTGKAAQVTIQSSGTFSSKFQVDNNNRLLLQQVSLPELPGEYSMKVTGEGCVYLQTSLKYNILPEKEEFPFALGVQTLPQTCDEPKAHTSFQISLSVSYTGSRSASNMAIVDVKMVSGFIPLKPTVKMLERSNHVSRTEVSSNHVLIYLDKVSNQTLSLFFTVLQDVPVRDLKPAIVKVYDYYETDEFAIAEYNAPCSKDLGNADYKDDDDKGASHHHHHH
  Protease Inhibition (% of WT); Protease Mixtures, IGD Substrate: 110 % of WT
